The values below come from US20250241939A1, “NUCLEIC ACID-BASED DELIVERY SYSTEMS AND USES THEREOF” (Kodikaz Therapeutic Solutions, Inc., priority 2022, published 2025).

To fix the notation:
B1: 49 (nucleic acid, listed as Homo sapiens)
chain: CTTTAACCTCCTTGTTACGTTTGTCTCTTCCAGAATCGAAGCTGTAAAACTACAAATGGTTCTTCAAATGGAGCCCCAGATGCAGTCCATGACTAAGATCTACCGCGGACCCCTGGACTGGCCTGCTAGCCCATGCTCCAATGTTGATGACATTGAAGGCACCCCTCCCAAGGAAATCTCAACTGCACGACCCCTACTATGCCCCAATTCAGCATGAAGCAGTTAAGAGCGGTTGTCAGCCAACCTCCCCAACAGCACTTGGGTTTTCCTGTTGAGAGGTGGGACTGAGAGA
B2: 26 (nucleic acid, listed as Homo sapiens)
chain: AATTACAACAACCCTTAATATTTGTAAAGCGCTTGATAATTCAGGGAGGGCTTTTAAAAACTTCTATCCATCTCTTCCCCCCAGCAATCCTATGAGGTAGGCAGGGCTGGAATCATTTGCTGCATTTTATCGAATAGGAAGCCATGACTCGTAGAGGTCTGGTGACTTAACTGAGGTCACCCACTGAGGACGTGGCAGAGCTGGGTCCTGAATCTGTGGCCCTCAGGCTCTTTGCCTGGCCCTGCCTCACATAGACTACGCTGCCTCT
B3: 67 (nucleic acid, listed as Homo sapiens)
chain: CCTTAATAGTTAATCTCCTATTAATAAGTAAGTGATTCTTTAATTAAACTTTCCTCATTCAAATGGCCATATGCTTTCTGTCTCTCGACTAGATGCTGAGTGATATACCCCCCA
modifications: listed as DNA, chemistry not fully specified
B4: 50 (nucleic acid, listed as Homo sapiens)
chain: CAGTCTTTCAGGACCAGAAGAGATGGATTTTAGGTTTTCCTTCCACTCAATGTATTCTATATGTACCCTAATCAACAAACATGCCTGGTTGTCACAGGTAGAAGGGGTCTCTACTCTGAATCATTCAGAGAAGAAATAATCATATTCTTTCGATGCTATCACTAACACAGGACCGTGATCCGAGACAACCAGGTTCAGTTCTTGATATGTAAAGGAATTTGGGAAAATATCATCTCTCACCACAAAATCTGTATTTTTATGTATATTTAAGCAAAATCCTGTTTTGGTCATCATTTTCTTTACCTTTCTTCTATATCCATCCTAATCTCCCTTTCAGC
B5: 61 (nucleic acid, listed as Homo sapiens)
chain: TATTTTTAAGCAAAGACTTAGAGAGAGAGAGGAAGTTAGCTATGCACATTGTGGGTGCGGTGTGGTTAGGGTGGCCCTGAGATAGGGATATGCCTGGTGTGTTTACGGAACAGCTAAGAGGCCAGGGAACTAGAGGAAATTGAGTGGGAAGGAGAAGAGTAGGAGATTAGTTTTGAAAAGCAAATGGTTTGGGAATATGGATCATGTAAGAGCACATGAGATTTTATAAGGATTTCATTTTACTCAGGGTGAAATGAAGAAGCACTAAAA
B6: 58 (nucleic acid, listed as Homo sapiens)
chain: TAGATGGAGGGGGAAAAACAGGGTGGGGAGCGGGAGGGAGGGAAGGTTTTGCAGAAAGACGGCGGTTAAAAAGTTTATGGGTAGATGGAGGGGGAAAAGAGGGTGGCAAGTGGGAGGAGGAAAGAGGGTGATAAGGGGGGGAAGTGGGGGTGAGCAGTAGGGAGAGAAGGTTTTGTGAAAAAAATGGGGAGAAAGGTTTTGGTTAGACGGGAGAAAAGAGGGTAACAAGTTGGGGAAGGAAAAAGAGGGTAGCTAGGAAGAAGACAAGGTTTTGCGAAAAGATAGCGGCCAGAAAAGAAAGACGGTGGAGAAAGGAAAGACGGTGGGTAAAAAGTGGGTAGATGGAGTGGGGAAAGAGGGT
B7: 55 (nucleic acid, listed as Homo sapiens)
chain: GCGGTGGCTCACGCTTGTAATCCCAGCACTTTGGGAGGCCGAGGTGGGCGGATCACGAGGTCAGGAGATCAAGACCACGGTGAAACCCCATCTCTACTAAAAATATAAAAAATTAGCCGGGCGTGGTGGTGGGCGCCTGTAATCCCAGCTACTCAGAGAGGCTGAGGCAGGAGAAGGGCGTGAACCCGGGAGGCGGAGCTTGTAGTGAGCTGAGATCGCGCCACTGCACTCCAGCACCCCAGCCTGGGTGACAGAGCGAGACTCCGTCTCAAAAAAATAATAATAATAATTAAATAAATAA
B8: 52 (nucleic acid, listed as Homo sapiens)
chain: TCATCTCACAGAGTTAAACCTTTCTTTTGATTGAGCAGTTTTGAAACTCTCTTTTTGTAGAATCTACAAGTGGACATTGGGAGCTCTTTGAGGCCTATGTTAGAAAAGGAAATATCTTCACATAAAACCTAGATAGAGGCAATCTGAGAAACATCTTTGTGATGTGTGCATTCATCTCACGGAGTTAAACCTTTCTTTTCGTTGAGCAGTTTTTAAACTGTCTTTTTGTAGAATGTGCAAGTGGACATTTGGAGCGCTTTTTGTCCTATGGTGGGAAAGGAAGTATCTTCACATAAAAACTAGACCGAAGAATTCTGAGAAACTTCTTTGTGACGTGTACGTTCATCTCACTGAGTTGAACCTTTCTTTTGATTGAGCAGTTTGGAAACACTCTTTTTGTAGAATCTGCAAGTAGACATTTGGAGCGCTTTTCAGCCTACGGTAGAAAAGGAAATATCTTCACATCACAAAGAGAGAGTTTCAAAACTGCTCTATCAAAAGAAAGGTTTAACCCTGTGCGATGAATGCACATATCACAAAGAAGTTTCTCAGATTGCTTCTGTCTAGATTTTATGTGAAGATATTCCTTTTTCCACCATAGGCCTCAAAGCGCTCCAAATGTCCACTTGCAGATTCTACAAAAAGAGTGCTTCCAAACTGCTCGATGAAAAAAATGGTTCAACTCTGTGAGATGAATGCACGCATCACAAAGAAGTTTCTCAGAATTTTTCTATCTAGTATTTATTTGAAGATATTTCATTTTCCACCAT
B9: 60 (nucleic acid, listed as Homo sapiens)
chain: ATTCAGAAGACAAATCTCACATGCAAAGACACACATAGGCTCAAAATAAGTGGATGGAGGAATATTTACCAAGCAAATGGCAAGCAAAAAGAAAAAGCAGGGGTTGCAATCCTAGTATCTGATAAAACAGGCTTTAAACCAAGAAAGATCAAAAAAGACAAAGAAGGTCATTACATAATGGTAAAGGGATCAATGCAACAAGAAGAGCTAACTATCCTAAATATATACGCACCCAATACAGGAGCACCCAGATTCATAAAGTAAATTCTTAGAGACTACAAAGAGACTTATACTCCCATACAATAATAGTGGGAGATTTTAACACCTCATTGTTGATATTAGATCAATGAGACAGAAAATTAACAAGGATATTCAGGACTTGAACTCAGCACTGGACAAAGCAGATTTAATAGACATCTACAGAACTCTCTACCTCAGATCAACAGAATATACATTCTTCTCAGCACCACATAGCACTTATTCTAAAATTGACCACATAATTGGAAGTAAAACACTCCTCAACGAATGCAAAAGAATGGAAATCATAACAAACAGTCTCTCAGACCACAGTGCAATCAAATTAGAACTCAGGATTACGAAACTTACTCAAAACTGCACAACTACATGGAAACTGAACAACCTGCTCCTGAACGACTACTGGGTAAATAATGAAATGAAGGCAGAAATAAATAAGTTTTTGAAACCAATGAGAACAAAGACACAACATACCAGAATCTCTGGGACACAGCTAAAACAGTG

One series concerns MIA (pancreatic cancer) cell genome. Kind of series: ctDNA coculture with MIA cells, whole genome sequencing: genomic insertion sites, transposons at insertion points and SNVs (pancreatic cancer). The format is cell-based, human. As to conditions: TABLE 4; gene at identified genomic insertion site. The method, then:
The integration of ctDNAs into the host cell genome was evaluated. ctDNA was extracted from patient plasma, cultured for 24 hours with cells of a matching cancer cell type or non-matching cancer cell type, and whole genome sequencing was performed. The cell lines used were MM1s (multiple myeloma, MM) and MIA (pancreatic cancer, PC).
The sequence data was used to reconstruct genomic contigs for each experimental condition by de novo assembly. […] Coculture contigs carrying a ctDNA insertion were identified using NucDiff analysis.
Experiments were designed to identify the presence of transposons in ctDNA fragments. To map ctDNA genomic junctions more precisely, a PACBIO probe was ligated to multiple myeloma and pancreatic cancer ctDNA samples to label their 5′ and 3′ ends. Whole-genome sequencing of DNA from cells with ctDNA genomic integration was done using the Illumina platform. De novo assembly was performed on the sequencing output. ctDNA contigs containing PACBIO adaptor were then matched to those contigs containing inserted ctDNA sequences identified in the coculture experiments. Transposable element on ctDNA sequences at the insertion points (<100 nucleotides from transition point between cell and ctDNA) were detected and classified using RepeatMaster.
A search was conducted for transposons that preferentially target cells of matching tumor types. The lists of transposons identified at the ctDNA insertion point in matching and mismatched coculture conditions were compared (e.g., MM ctDNA with MM cells or PC cells). Transposons were selected that were uniquely or preferentially inserted in the matching conditions.
Whole-genome sequencing and Whole exon sequencing: ctDNA was extracted from 10 MM and 10 PC patients. DNA from CD138 (+) cells and from cell lines used in in vitro experiments (MM1s and MIA) was extracted using Blood & Cell Culture DNA Mini Kit (Quiagen, MD). DNA from […] paraffin embedded pancreatic tumors was obtained using QIAamp DNA FFPE Tissue Kit Print (Qiagen, MD).
After extraction, ctDNA was ligated to the PACBIO adaptor ([…]) using the ABM DNA Library Prep Kit for Illumina Sequencing (Applied Biological Materials Inc. Canada). PACBio-labeled ctDNA and regular ctDNA were subjected to standard methods for library preparation and sequencing using Illumina and Agilent protocols, respectively. Applied Biological Materials Inc. prepared the libraries and performed whole-exon and -genome sequencing.
Identification of transposable elements and its nucleotide variants: To determine the locations of transposable-like regions in contigs, sequences were analyzed and transposable elements (TEs) were identified and classified using RepeatMasker version 4.1.0 and the Dfam database (release 3.1) of repetitive DNA families was used as a reference for identifying repeats in ctDNA contig sequences that were part of qualifying structural events. For each repeat sequence identified by RepeatMasker, the overall frequency of the specific repeat (e.g., for AluSp or L1) and their parent class (e.g., SINE) was computed.
Once the TE elements were identified, hit repeats/TE sequences, unique contigs for all samples, and insertion sequence were aligned with MAFFT software version. Mutations in TE sequences were identified by comparison of nucleotides at each position in the multiple sequence alignment with the “Biostrings” R package (version 4.1). A position was considered to contain mutation if the substitution was present in contigs of all samples.
For the molecule B1, the Gene entry was “AIG1”.

Turning to B2, the Gene entry is given as “PPAC”.

Still in this series, the particulars now being: TABLE 4; identified genomic insertion site, chromosome.
On to B3, for which the Location result is listed as “Chr 19”.

Regarding B1, the Location result was “Chr 6”.

Consider B2, for which the Location result is recorded as “Chr16”.

Consider B4, for which the Location entry is “Chr 7”.

In the case of B5, the Location entry is recorded as “Chr 14”.

Take B6: the Location entry is on record as “Chr 13”.

Take B7: the Location entry is reported as “Chr 14”.

As to B8, the Location entry is recorded as “Chr 7”.

Turning to B9, the Location result is “Chr 4”.

The series is the same for the next values; noted with them: TABLE 4; number of single nucleotide variants (SNVs or SNPs) identified; polynucleotides for pancreatic cancer cells.
In the case of B3, the “No. SNP” value is given as 1.

On to B1, for which the “No. SNP” value was found to be 5.

As to B2, the “No. SNP” value is on record as 0.

With B4, the “No. SNP” value is reported as 3.

As to B5, the “No. SNP” value was determined as 1.

On to B6, for which the “No. SNP” value was 1.

In the case of B7, the “No. SNP” value is 1.

On to B8, for which the “No. SNP” value is listed as 55.

As to B9, the “No. SNP” value is given as 1.

Still in this series, the particulars now being: TABLE 4; position on the chromosome of the identified genomic insertion site.
Regarding B3, the Chr location is recorded as 40372997.

Molecule B1 registered a Chr location of 143409567.

The molecule B4 yielded a Chr location of 18828526.

As to B5, the Chr location stood at 21413450.

The molecule B6 showed a Chr location of 19693028.

Consider B7, for which the Chr location was found to be 103067410.

Take B8: the Chr location amounted to 57988111.

As to B9, the Chr location amounted to 36939485.
